# Source: patent publication US20080014635A1
# Key:
# [1] = target: wild-type TNFrED-agglutinin fusion displayed on the surface of S. cerevisiae BJ2168 (human); assay: flow cytometry of yeast, biotinylated hTNF-α detected with FITC-avidin (FL1-H); gate line at FL1-H just below 10^1; vector-only pYES2 yeast in the left panel: Right Half= 1.42% [B]
# [2] = target: mutant clone 6 (TNFrED H23P + S46I)-agglutinin fusion displayed on yeast (human); assay: saturation binding of [125I]TNF-α to yeast displaying mutant clone 6, best-fit values box; the box prints no unit, the concentration axis is TNF-α [nM] [B]
# Sequence of mutant clone 6 (TNFrED H23P + S46I)-agglutinin fusion displayed on yeast (human) (P20840 other isoform, or with tags, fused parts or gaps H23P S46I H23P S46I, form in doubt): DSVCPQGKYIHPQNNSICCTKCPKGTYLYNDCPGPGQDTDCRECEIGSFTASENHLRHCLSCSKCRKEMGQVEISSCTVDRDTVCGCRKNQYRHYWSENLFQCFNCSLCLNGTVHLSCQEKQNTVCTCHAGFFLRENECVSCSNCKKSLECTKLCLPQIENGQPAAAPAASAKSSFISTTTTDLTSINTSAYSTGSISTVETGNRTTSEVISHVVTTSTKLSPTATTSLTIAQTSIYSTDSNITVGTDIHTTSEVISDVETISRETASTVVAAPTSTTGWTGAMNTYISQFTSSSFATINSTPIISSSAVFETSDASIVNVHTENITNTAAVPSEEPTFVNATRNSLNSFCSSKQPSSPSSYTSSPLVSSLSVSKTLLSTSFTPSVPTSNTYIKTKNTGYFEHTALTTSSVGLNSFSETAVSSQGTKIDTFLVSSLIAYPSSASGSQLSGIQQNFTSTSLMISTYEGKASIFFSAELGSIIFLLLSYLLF
# [3] = target: wild-type TNFrED-agglutinin fusion displayed on the surface of S. cerevisiae BJ2168 (human); assay: flow cytometry of yeast, biotinylated hTNF-α detected with FITC-avidin (FL1-H); vector-only pYES2 yeast in the left panel: Left Half= 98.58% [B]
# [4] = target: wild-type TNFrED-agglutinin fusion displayed on the surface of S. cerevisiae BJ2168 (human); assay: saturation binding of [125I]TNF-α to yeast displaying wild-type TNFrED, best-fit values box; the box prints no unit, the concentration axis is TNF-α [nM] [A]
# [5] = target: mutant clone 11 (TNFrED S76P)-agglutinin fusion displayed on yeast (human); assay: saturation binding of [125I]TNF-α to yeast displaying mutant clone 11, best-fit values box; axis 'Bound' has no unit [C]
# Sequence of mutant clone 11 (TNFrED S76P)-agglutinin fusion displayed on yeast (human) (P20840 other isoform, or with tags, fused parts or gaps S76P S76P, form in doubt): as the sequence (P20840 other isoform, or with tags, fused parts or gaps H23P S46I H23P S46I, form in doubt) above, with P23H, I46S, S76P counted along it
# [6] = target: mutant clone 6 (TNFrED H23P + S46I)-agglutinin fusion displayed on yeast (human); assay: saturation binding of [125I]TNF-α to yeast displaying mutant clone 6, best-fit values box; axis 'Bound' has no unit [B]
# [7] = target: wild-type TNFrED-agglutinin fusion displayed on the surface of S. cerevisiae BJ2168 (human); assay: saturation binding of [125I]TNF-α to yeast displaying wild-type TNFrED, best-fit values box; axis 'Bound' has no unit [A]
# Sequence of wild-type TNFrED-agglutinin fusion displayed on the surface of S. cerevisiae BJ2168 (human) (P20840 other isoform, or with tags, fused parts or gaps, form in doubt): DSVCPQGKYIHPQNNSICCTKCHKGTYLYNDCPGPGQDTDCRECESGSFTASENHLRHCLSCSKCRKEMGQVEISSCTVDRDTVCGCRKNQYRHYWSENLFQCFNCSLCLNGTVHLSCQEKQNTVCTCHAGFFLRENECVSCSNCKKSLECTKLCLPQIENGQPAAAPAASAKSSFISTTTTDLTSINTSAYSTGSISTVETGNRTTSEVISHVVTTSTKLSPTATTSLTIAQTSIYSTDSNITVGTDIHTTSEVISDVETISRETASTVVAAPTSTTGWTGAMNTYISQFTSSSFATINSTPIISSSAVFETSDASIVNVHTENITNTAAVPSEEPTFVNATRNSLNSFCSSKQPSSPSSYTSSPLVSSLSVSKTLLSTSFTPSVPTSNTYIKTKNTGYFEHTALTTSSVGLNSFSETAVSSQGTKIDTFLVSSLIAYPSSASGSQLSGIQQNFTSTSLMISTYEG
substance,measurement,setting,value
human TNF-α (hTNF-α) (from UniProt P01375 77-233) (ligand),Right Half (percent of yeast cells right of the FL1-H gate),[1],10.9%
same,Kd,[2],1.71 nM
same,Left Half (percent of yeast cells left of the FL1-H gate),[3],89.1%
same,Kd,[4],2.04 nM
same,BMAX,[5],0.127
same,BMAX,[6],0.334
same,BMAX,[7],0.0645
